# The supplement of paper PMC10126150
# ± gives the standard deviation of the averaged measurements.
# Test system: ATP
# Experiment: switch fluorescence ratio, 500 uM ATP over buffer (Cy3 cluster intensity, sum of 5 cycles each) (fold (ratio)); higher = stronger signal-on switching upon ATP binding; sequences stand for … in TCGTCGGCAGCGTCAGATGTGTATAAGAGACAGTTTTTTTTTTTTTTTTTTTTTTTTT…TC
# Conditions: aptamer strand: ATP DNA aptamer (quencher-CACCTGGGGGAGTATTGCGGAGGAAGG + anchor), 100 nM annealed; ATP concentration: 500 uM
# In short: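 Clusters carrying Cy3-labelled switching strands on a modified Illumina MiSeq flow-cell were annealed to 100 nM quencher-labelled ATP aptamer and imaged in selection buffer. They were imaged again after 15 min with 500 uM ATP at 22 °C, over five buffer/ATP cycles with NaOH stripping and re-annealing in between. For each cluster, the fluorescence ratio is the summed Cy3 intensity of the target cycles divided by that of the buffer cycles, averaged per switch-domain sequence. Clusters outside 100-1000 RFU were left out.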
# 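Note: ATP exposure 15 min at 22 °C before imaging.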
row,Sequence,switch fluorescence ratio
1,ACCGGGTGTA,1.3 ± 0.086
2,GTCACCCTTT,1.01 ± 0.014
3,GGGGGTATCA,0.98049 ± 0.00015
4,TTTTTTCCTG,0.989 ± 0.011
5,TGTTTCCATG,0.988 ± 0.016
6,GGGAGGGGGA,1.01 ± 0.035
7,ATTTAAGGGG,0.9949 ± 0.0092
8,GTTGTAGGTG,1.057 ± 0.0014
9,TTTCAAAACA,1.0474 ± 0.00015
10,TGGTTTCCGT,0.991 ± 0.027
11,CTGGGTTGGC,1.0029 ± 0.00048
12,TTTTTTAAGT,0.995 ± 0.024
13,TACACTGAAT,1.01 ± 0.038
14,TACATTTTAC,1.151 ± 0.0082
15,CGACATCGGA,1.02 ± 0.017
16,GGGCAAACGA,1.12 ± 0.025
17,ACTGTGCGTA,1.03 ± 0.054
18,GGTTTTTCGG,1.04 ± 0.014
19,GACTCTAGGA,1.064 ± 0.0025
20,TTTGTTCATC,0.97 ± 0.024
21,TTCCTTGTTA,0.9973 ± 0.0052
22,TGGGTCACAA,0.992 ± 0.024
23,TTAAATGTGT,1.02 ± 0.018
24,CACGCACATG,1.5 ± 0.076
25,GCGGGACGTT,0.96828 ± 0.00072

row,Sequence,switch fluorescence ratio
1,GGTAGTGTTT,0.998 ± 0.035
2,GTTTTTTATT,0.996 ± 0.033
3,TGGGCGGGTT,0.989 ± 0.032
4,ATACTGTCGC,1.0874 ± 0.0002
5,TGCATTTTCG,1.03 ± 0.049
6,CCGGATGGGT,1.012 ± 0.0037
7,GCAGTAATTT,1.49 ± 0.62
8,AATTGGACTA,0.976 ± 0.063
9,AGTGAGCTGG,0.9733 ± 0.0031
10,TGTGGCAAGA,1.14 ± 0.14
11,GGGTGGTCAG,1.01 ± 0.023
12,AGGTCAGTAG,1 ± 0.024
13,AGAGGGAGGA,1.017 ± 0.0086
14,CAAGATGGGA,0.963 ± 0.082
15,CTCGTTCGGC,0.98 ± 0.024
16,ATGTTTGGCC,1.04 ± 0.041
17,GGAAATGACT,1.01 ± 0.021
18,AATTTTTGTA,0.984 ± 0.018
19,CTTAGGGGT,1.03 ± 0.015
20,TTTAAGGATA,0.9872 ± 0.0055
21,TTTGCTAG,1.013 ± 0.0095
22,TGTAGGGTTC,1.12 ± 0.19
23,TCAGCCGTTT,1.05 ± 0.054
24,AAACTGGGGG,1.012 ± 0.0032
25,TGTTTGGATT,0.988 ± 0.013

row,Sequence,switch fluorescence ratio
1,AGTACTGCGA,1.05 ± 0.035
2,AGAGAGGCTA,1 ± 0.015
3,GGGGGTATAT,1.03 ± 0.019
4,GGTGTCTCCC,1 ± 0.039
5,GCTCTAAGGG,1.01 ± 0.028
6,GCTTGGGGTT,0.98 ± 0.021
7,CAACAGGGGT,1.14 ± 0.23
8,TTTTAGGGCA,1 ± 0.018
9,CTAAAAGAGG,0.997 ± 0.019
10,TGGGTAGGAA,1.0335 ± 0.00064
11,TTGGGACTTA,1.01 ± 0.03
12,AGGGTTAAGT,1.002 ± 0.0061
13,GTCGTTTGGA,1.01 ± 0.035
14,TCTTTTTGGC,1.01 ± 0.034
15,TTTTGATGTT,0.988 ± 0.031
16,TTGGGACAAA,1.05 ± 0.061
17,CGTTTGGGTG,1.02 ± 0.055
18,TTCATTGTCG,0.929 ± 0.062
19,ATATGGAGAT,0.98 ± 0.017
20,GGTAATGGTG,1.0095 ± 0.00021
21,TTTGAGCCAC,1.05 ± 0.0095
22,GGGCTAGGGG,0.994 ± 0.029
23,CGCGTTGTGG,1.03 ± 0.012
24,TGTTTCTCTG,1.01 ± 0.023
25,TTAGCTTGG,0.999 ± 0.061

row,Sequence,switch fluorescence ratio
1,GGTATAAGGA,0.996 ± 0.016
2,AGTAATTGAC,1.1 ± 0.013
3,ACCATTAAAA,1.004 ± 0.0029
4,ATTTGAGTTG,0.965 ± 0.01
5,ATTTTGTGGG,1 ± 0.023
6,GGGTATATTG,0.983 ± 0.011
7,GGGGGGGTAC,1.23 ± 0.62
8,GGGCTATCAT,0.965 ± 0.012
9,AATTGTGCCT,1.08 ± 0.055
10,TAAGAGACGG,0.991 ± 0.056
11,TTGGCCGCAT,1.24 ± 0.09
12,TCAGCATGTA,1.04 ± 0.019
13,GTCGGCATGG,1.07 ± 0.059
14,GTGTTTAAGT,0.962 ± 0.014
15,ATCAATTGAT,1.01 ± 0.052
16,CGGATGTAGC,1.02 ± 0.063
17,GAACAAGGTG,1.14 ± 0.22
18,GAGAGAAGTG,0.945 ± 0.022
19,CGGAATGTTT,1.05 ± 0.057
20,TGTTCGACCG,1.012 ± 0.01
21,AGGTTTGTGG,0.976 ± 0.023
22,TTTGGGAATA,1.02 ± 0.02
23,TCTTGGGGG,1.05 ± 0.012
24,ATATCTTTTG,0.9904 ± 0.0088
25,AGGGCGGCTT,1 ± 0.032

row,Sequence,switch fluorescence ratio
1,CCCATCCATC,1.03 ± 0.029
2,CGCGGGGAGC,1.07 ± 0.088
3,CTTGGGACTT,1 ± 0.05
4,CAGGTCTTAA,0.9719 ± 0.0054
5,TCGGACACAT,1.07 ± 0.03
6,ATTCCAAGGT,0.997 ± 0.029
7,GATCTACTTG,0.995 ± 0.017
8,GGTTAGGATG,0.97 ± 0.025
9,GTTGTTTGAT,0.997 ± 0.052
10,ATATGTTGAA,1.02 ± 0.027
11,AGTTTTTTGG,1.01 ± 0.033
12,TTGCTTGGGA,1.04 ± 0.014
13,ATGGTTTTT,0.984 ± 0.022
14,TTCAGCTGGG,0.998 ± 0.022
15,ATTGCGACAC,1.23 ± 0.035
16,ATATGGTAGT,1.03 ± 0.032
17,GGTGACAGGC,1.04 ± 0.08
18,GGGACTTATG,1 ± 0.013
19,TTATGGGTCA,0.983 ± 0.025
20,ATTAGTTGTA,1 ± 0.025
21,CGTTTTTCGT,0.9779 ± 0.0038
22,TCGGCAATTT,1.4 ± 0.34
23,TTGGACTCTT,0.977 ± 0.038
24,ATGGGCGTGG,1 ± 0.06
25,TATGAGTAAG,0.978 ± 0.027

row,Sequence,switch fluorescence ratio
1,CTAGTTCGTC,0.972 ± 0.12
2,TGAGGGTGCT,1.04 ± 0.037
3,TGGGAAGATT,1.028 ± 0.0041
4,TTTCATGATG,0.998 ± 0.02
5,CTTAAAATGG,1.03 ± 0.038
6,TTGACTTGTC,0.9991 ± 0.0069
7,ACCGCTTTTT,1.11 ± 0.024
8,TGTTCGGGAT,0.977 ± 0.01
9,TACGTTTTGT,1.01 ± 0.011
10,ACGGGTTGTG,0.96 ± 0.037
11,TAGGGGGCTT,1.01 ± 0.018
12,GTGTTACTTT,0.99 ± 0.017
13,GCGTTTAAGT,1.02 ± 0.032
14,CATATTTCCA,0.99 ± 0.02
15,TGGCGGACAG,0.99 ± 0.026
16,TTAAGGCGGA,1.04 ± 0.023
17,GAAATCCGAA,1.08 ± 0.058
18,ACTTAGAAAT,1.046 ± 0.01
19,GAGAGTTATT,0.988 ± 0.04
20,CGCCTTAATT,1.01 ± 0.042
21,GTTATAGCTA,0.9859 ± 0.0061
22,GACGGTAGTT,1.01 ± 0.047
23,TGTGGTATTA,0.976 ± 0.036
24,TTGTGGCGTG,1 ± 0.034
25,CACGCGGGGG,1.03 ± 0.015

row,Sequence,switch fluorescence ratio
1,TGAACTAGTA,0.9828 ± 0.0046
2,GTGGTTGTAT,0.974 ± 0.015
3,CGGGGGTTCT,1.006 ± 0.0032
4,TATCCATGGA,1.01 ± 0.026
5,GCCTAAGGGA,1 ± 0.0063
6,AGCGGGTTCG,1 ± 0.054
7,TTAAACTTAT,1.047 ± 0.0024
8,ACTTTACTTA,1.33 ± 0.02
9,ATAGTTGGTT,1.01 ± 0.03
10,TTACTTATAA,1.04 ± 0.018
11,TCTAGCACGG,1.06 ± 0.023
12,TACGGGGACG,1.02 ± 0.026
13,TTTTGTGAAG,0.963 ± 0.035
14,TAATGGGTGA,1.03 ± 0.016
15,ATTTGAGCGT,1.02 ± 0.014
16,GACTTGCTGG,0.9876 ± 0.0044
17,TTGGTGAGAG,0.997 ± 0.019
18,TGTTAAACGG,1.01 ± 0.039
19,AGTGTTGTAT,1.05 ± 0.044
20,GGGATTGGAT,0.967 ± 0.037
21,GGGGGATT,0.996 ± 0.02
22,GCCGTGGAG,1.0133 ± 0.00012
23,AGAATGGTGT,1.02 ± 0.038
24,CTTGGTAGTG,0.959 ± 0.015
25,GCCGGGAGGG,0.985 ± 0.025

row,Sequence,switch fluorescence ratio
1,TTTGCATTCT,1.004 ± 0.0078
2,TTAATAAAGG,1.02 ± 0.018
3,TAGGGGAGGT,1.01 ± 0.016
4,GTGAGTGTAT,0.9682 ± 0.0092
5,TAAGCGGGCT,0.973 ± 0.024
6,TATGGAGTTT,1.01 ± 0.013
7,ACATGTTATA,1 ± 0.049
8,CGGCTGGTTC,0.98 ± 0.04
9,TTTTTAGGGC,1.02 ± 0.059
10,ATAGGCCAG,0.9898 ± 0.0067
11,TAAAGGGGGC,1.05 ± 0.017
12,GGTTTTTAAG,0.995 ± 0.023
13,GGACTAAAAT,1.08 ± 0.13
14,GTCTGGGCGG,0.9919 ± 0.0031
15,CTGTATTCAC,1.04 ± 0.033
16,AACGTTAAAT,1.01 ± 0.037
17,GAGCCCAATG,1.0092 ± 0.001
18,TTTCGGGGAA,1.06 ± 0.1
19,ATTGTAATAG,1.04 ± 0.05
20,GTCGCCGGGT,0.994 ± 0.026
21,TATCAGGTCC,0.9982 ± 0.0069
22,TGTGAGTAGG,1.02 ± 0.017
23,TAATTGGTGC,1.049 ± 0.0075
24,AATTTCCGAG,1.17 ± 0.037
25,CCGGGCCGAA,1.05 ± 0.017
